Publication doi:10.1101/183855

Target: DEAD-box RNA helicase DDX6 (human (endogenous in 293T)) (UniProt P26196)
Assay: proximity ligation

UniProt P26196, sequence (P26196 whole entry): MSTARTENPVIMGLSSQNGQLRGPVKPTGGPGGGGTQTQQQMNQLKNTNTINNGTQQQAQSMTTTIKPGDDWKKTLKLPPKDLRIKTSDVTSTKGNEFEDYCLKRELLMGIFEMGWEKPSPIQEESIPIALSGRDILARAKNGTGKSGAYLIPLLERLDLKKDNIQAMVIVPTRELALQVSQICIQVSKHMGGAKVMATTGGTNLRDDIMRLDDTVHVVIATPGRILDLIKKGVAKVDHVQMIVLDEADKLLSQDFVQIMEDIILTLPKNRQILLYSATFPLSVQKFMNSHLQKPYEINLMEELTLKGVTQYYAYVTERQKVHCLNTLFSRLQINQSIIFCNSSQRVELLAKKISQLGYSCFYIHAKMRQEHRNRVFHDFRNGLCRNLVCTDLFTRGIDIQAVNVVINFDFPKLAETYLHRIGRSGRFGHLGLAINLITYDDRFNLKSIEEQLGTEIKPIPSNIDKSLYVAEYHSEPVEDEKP

Substance | PLA spots per Z stack image (PLA spots per Z stack image) | PLA spots per cell (PLA spots per cell)
G2A Gag (HIV-1 Gag with glycine 2 changed to alanine, expressed from LAI provirus) (natural protein) | 56 | 50
HIV-1 Gag, wild type (expressed from LAI provirus) (natural protein) |  | 50
